Consider five sequences from the supplement of paper PMC5998384.

The test system of data set [1] is HeLa Kyoto. Briefly: melting temperature (median over replicates), in situ; higher = more thermally stable.
The subject of data set [2] is HeLa Kyoto. Briefly: solubility change mitosis vs G1/S (difference of NP-40 vs SDS log2 ratios) (log2 ratio difference); higher = more soluble in mitosis.
For data set [3], the system named is HeLa Kyoto. Briefly: thermal stability score vs G1/S (z-score of summed log2 fold changes over temperatures); higher = more thermally stable than in G1/S.
Data set [4] has as its system HeLa Kyoto. The data set can be described thus: solubility in G1/S (NP-40 vs SDS abundance) (log2 ratio); higher = more soluble. Particulars: cell cycle stage: G1/S.
The mark [5] stands for this setting: cell cycle stage: early G1 (4.5 h after nocodazole release).
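For melting temperature (median over replicates), in situ in this document: HeLa Kyoto cells synchronized by double thymidine or nocodazole block, proteins quantified by TMT10plex mass spectrometry, three independent biological replicates.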
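For solubility change mitosis vs G1/S (difference of NP-40 vs SDS log2 ratios) in this document: synchronized HeLa Kyoto cells (double thymidine block for G1/S, nocodazole release for mitosis), protein amounts in NP-40 versus SDS lysates quantified by mass spectrometry, three biological replicates.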
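For solubility in G1/S (NP-40 vs SDS abundance) in this document: HeLa Kyoto cells arrested at G1/S by double thymidine block, proteins quantified by TMT10plex mass spectrometry in mild NP-40 versus SDS extracts, three biological replicates.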
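For thermal stability score vs G1/S (z-score of summed log2 fold changes over temperatures) in this document: synchronized HeLa Kyoto cells, proteins quantified by TMT10plex mass spectrometry, three biological replicates, mitosis taken 0.5 h after nocodazole release, G1/S directly after double thymidine block.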

For the sequence “MKKKTVCTLNMGDKKYEDMEGEENGDNTISTGLLYSEADRCPICLNCLLEKEVGFPESCNHVFCMTCILKWAETLASCPIDRKPFQAVFKFSALEGYVKVQVKKQLRETKDKKNENSFEKQVSCHENSKSCIRRKAIVREDLLSAKVCDLKWIHRNSLYSETGGKKNAAIKINKPQRSNWSTNQCFRNFFSNMFSSVSHSGESSFTYRAYCTEFIEASEISALIRQKRHELELSWFPDTLPGIGRIGFIPWNVETEVLPLISSVLPRTIFPTSTISFEHFGTSCKGYALAHTQEGEEKKQTSGTSNTRGSRRKPAMTTPTRRSTRNTRAETASQSQRSPISDNSGCDAPGNSNPSLSVPSSAESEKQTRQAPKRKSVRRGRKPPLLKKKLRSSVAAPEKSSSNDSVDEETAESDTSPVLEKEHQPDVDSSNICTVQTHVENQSANCLKSCNEQIEESEKHTANYDTEERVGSSSSESCAQDLPVLVGEEGEVKKLENTGIEANVLCLESEISENILEKGGDPLEKQDQISGLSQSEVKTDVCTVHLPNDFPTCLTSESKVYQPVSCPLSDLSENVESVVNEEKITESSLVEITEHKDFTLKTEELIESPKLESSEGEIIQTVDRQSVKSPEVQLLGHVETEDVEIIATCDTFGNEDFNNIQDSENNLLKNNLLNTKLEKSLEEKNESLTEHPRSTELPKTHIEQIQKHFSEDNNEMIPMECDSFCSDQNESEVEPSVNADLKQMNENSVTHCSENNMPSSDLADEKVETVSQPSESPKDTIDKTKKPRTRRSRFHSPSTTWSPNKDTPQEKKRPQSPSPRRETGKESRKSQSPSPKNESARGRKKSRSQSPKKDIARERRQSQSRSPKRDTTRESRRSESLSPRRETSRENKRSQPRVKDSSPGEKSRSQSRERESDRDGQRRERERRTRKWSRSRSHSRSPSRCRTKSKSSSFGRIDRDSYSPRWKGRWANDGWRCPRGNDRYRKNDPEKQNENTRKEKNDIHLDADDPNSADKHRNDCPNWITEKINSGPDPRTRNPEKLKESHWEENRNENSGNSWNKNFGSGWVSNRGRGRGNRGRGTYRSSFAYKDQNENRWQNRKPLSGNSNSSGSESFKFVEQQSYKRKSEQEFSFDTPADRSGWTSASSWAVRKTLPADVQNYYSRRGRNSSGPQSGWMKQEEETSGQDSSLKDQTNQQVDGSQLPINMMQPQMNVMQQQMNAQHQPMNIFPYPVGVHAPLMNIQRNPFNIHPQLPLHLHTGVPLMQVATPTSVSQGLPPPPPPPPPSQQVNYIASQPDGKQLQGIPSSSHVSNNMSTPVLPAPTAAPGNTGMVQGPSSGNTSSSSHSKASNAAVKLAESKVSVAVEASADSSKTDKKLQIQEKAAQEVKLAIKPFYQNKDITKEEYKEIVRKAVDKVCHSKSGEVNSTKVANLVKAYVDKYKYSRKGSQKKTLEEPVSTEKNIG [SCAF11]”, the values for the melting temperature in the data set on HeLa Kyoto [1] (cell cycle stage: G1/S) and with HeLa Kyoto [1] (cell cycle stage: mitosis) were 52.9 °C and 53.5 °C, respectively. Moreover, the “solubility change mitosis (log2)” value in the data set with HeLa Kyoto [2] worked out at 0.664. Moreover, the thermal stability score with HeLa Kyoto [3] (setting [5]) was -1.41; with HeLa Kyoto [3] (cell cycle stage: mitosis) it was 2.84. In the data set on HeLa Kyoto [4], the “solubility in G1/S (log2)” value is -0.87.

As to “MKKVRLKELESRLQQVDGFEKPKLLLEQYPTRPHIAACMLYTIHNTYDDIENKVVADLGCGCGVLSIGTAMLGAGLCVGFDIDEDALEIFNRNAEEFELTNIDMVQCDVCLLSNRMSKSFDTVIMNPPFGTKNNKGTDMAFLKTALEMARTAVYSLHKSSTREHVQKKAAEWKIKIDIIAELRYDLPASYKFHKKKSVDIEVDLIRFSF [METTL5]”, the melting temperature with HeLa Kyoto [1] (cell cycle stage: G1/S) worked out at 58.9 °C; with HeLa Kyoto [1] (cell cycle stage: mitosis), 63.4 °C. Also, the “solubility change mitosis (log2)” value with HeLa Kyoto [2] was -0.277. The thermal stability score in the data set on HeLa Kyoto [3] (setting [5]) was -0.685; in the data set with HeLa Kyoto [3] (cell cycle stage: mitosis), -0.982. Besides, in the data set on HeLa Kyoto [4], the “solubility in G1/S (log2)” value is -0.0292.

With “MKLGRAVLGLLLLAPSVVQAVEPISLGLALAGVLTGYIYPRLYCLFAECCGQKRSLSREALQKDLDDNLFGQHLAKKIILNAVFGFINNPKPKKPLTLSLHGWTGTGKNFVSKIIAENIYEGGLNSDYVHLFVATLHFPHASNITLYKDQLQLWIRGNVSACARSIFIFDEMDKMHAGLIDAIKPFLDYYDLVDGVSYQKAMFIFLSNAGAERITDVALDFWRSGKQREDIKLKDIEHALSVSVFNNKNSGFWHSSLIDRNLIDYFVPFLPLEYKHLKMCIRVEMQSRGYEIDEDIVSRVAEEMTFFPKEERVFSDKGCKTVFTKLDYYYDD [TOR1A]”, the melting temperature in the data set with HeLa Kyoto [1] (cell cycle stage: G1/S) came out at 53.7 °C; in the data set on HeLa Kyoto [1] (cell cycle stage: mitosis) it was 53.5 °C. Besides, the “solubility change mitosis (log2)” value in the data set with HeLa Kyoto [2] was -0.0946. Moreover, the thermal stability score with HeLa Kyoto [3] (setting [5]) amounted to 3.37; with HeLa Kyoto [3] (cell cycle stage: mitosis), 4.06. Further, in the data set with HeLa Kyoto [4], the “solubility in G1/S (log2)” value was 0.000474.

With “MKLKLNVLTIILLPVHLLITIYSALIFIPWYFLTNAKKKNAMAKRIKAKPTSDKPGSPYRSVTHFDSLAVIDIPGADTLDKLFDHAVSKFGKKDSLGTREILSEENEMQPNGKVFKKLILGNYKWMNYLEVNRRVNNFGSGLTALGLKPKNTIAIFCETRAEWMIAAQTCFKYNFPLVTLYATLGKEAVVHGLNESEASYLITSVELLESKLKTALLDISCVKHIIYVDNKAINKAEYPEGFEIHSMQSVEELGSNPENLGIPPSRPTPSDMAIVMYTSGSTGRPKGVMMHHSNLIAGMTGQCERIPGLGPKDTYIGYLPLAHVLELTAEISCFTYGCRIGYSSPLTLSDQSSKIKKGSKGDCTVLKPTLMAAVPEIMDRIYKNVMSKVQEMNYIQKTLFKIGYDYKLEQIKKGYDAPLCNLLLFKKVKALLGGNVRMMLSGGAPLSPQTHRFMNVCFCCPIGQGYGLTESCGAGTVTEVTDYTTGRVGAPLICCEIKLKDWQEGGYTINDKPNPRGEIVIGGQNISMGYFKNEEKTAEDYSVDENGQRWFCTGDIGEFHPDGCLQIIDRKKDLVKLQAGEYVSLGKVEAALKNCPLIDNICAFAKSDQSYVISFVVPNQKRLTLLAQQKGVEGTWVDICNNPAMEAEILKEIREAANAMKLERFEIPIKVRLSPEPWTPETGLVTDAFKLKRKELRNHYLKDIERMYGGK [ACSL4]”, the values for the melting temperature in the data set with HeLa Kyoto [1] (cell cycle stage: G1/S) and in the data set with HeLa Kyoto [1] (cell cycle stage: mitosis) were 48.8 °C and 48.7 °C, respectively. Also, the “solubility change mitosis (log2)” value in the data set with HeLa Kyoto [2] was -0.157. Further, the thermal stability score with HeLa Kyoto [3] (setting [5]) came to 1.35; in the data set on HeLa Kyoto [3] (cell cycle stage: mitosis), 2.2. For the same sequence, the “solubility in G1/S (log2)” value in the data set on HeLa Kyoto [4] is -0.0428.

On to “MKLLLLHPAFQSCLLLTLLGLWRTTPEAHASSLGAPAISAASFLQDLIHRYGEGDSLTLQQLKALLNHLDVGVGRGNVTQHVQGHRNLSTCFSSGDLFTAHNFSEQSRIGSSELQEFCPTILQQLDSRACTSENQENEENEQTEEGRPSAVEVWGYGLLCVTVISLCSLLGASVVPFMKKTFYKRLLLYFIALAIGTLYSNALFQLIPEAFGFNPLEDYYVSKSAVVFGGFYLFFFTEKILKILLKQKNEHHHGHSHYASESLPSKKDQEEGVMEKLQNGDLDHMIPQHCSSELDGKAPMVDEKVIVGSLSVQDLQASQSACYWLKGVRYSDIGTLAWMITLSDGLHNFIDGLAIGASFTVSVFQGISTSVAILCEEFPHELGDFVILLNAGMSIQQALFFNFLSACCCYLGLAFGILAGSHFSANWIFALAGGMFLYISLADMFPEMNEVCQEDERKGSILIPFIIQNLGLLTGFTIMVVLTMYSGQIQIG [SLC39A14]”, for which the melting temperature in the data set on HeLa Kyoto [1] (cell cycle stage: G1/S) was 55.3 °C; with HeLa Kyoto [1] (cell cycle stage: mitosis), 59 °C. In addition, the “solubility change mitosis (log2)” value with HeLa Kyoto [2] was -0.241. Besides, the thermal stability score was 1.32 in the data set with HeLa Kyoto [3] (setting [5]) and 2.81 in the data set with HeLa Kyoto [3] (cell cycle stage: mitosis). Moreover, the “solubility in G1/S (log2)” value with HeLa Kyoto [4] is -0.0657.
